{
  "source": "patent US20160208274",
  "molecular_target": "fibrin (formed in the agarose plate from fibrinogen and thrombin)",
  "data": [
    {"protein": "recombinant human tissue plasminogen activator (t-PA) from transgenic T1 tobacco seeds, with C-terminal 6xHis tag and KDEL (protein) SYQVICRDEKTQMIYQQHQSWLRPVLRSNRVEYCWCNSGRAQCHSVPVKSCSEPRCFNGGTCQQALYFSYFVCQCPEGFAGKCCEIDTRATCYEDQGISYRGTWSTAESGAECTNWNSSALAQKPYSGRRPDAIRLGLGNHNYCRNPDRDSKPWCYVFKAGKYSSEFCSTPACSEGNSDCYFGNGSAYRGTHSLTESGASCLPWNSMILIGKVYTAQNPSAQALGLGKHNYCRNPDGDAKPWCHVLKNRRLTWEYCDVPSCSTCGLRQYSQPQFRIKGGLFADIASHPWQAAIFAKHRRSPGERFLCGGILISSCWILSAAHCFQERFPPHHLTVILGRTYRVVPGEEEQKFEVEKYIVHKEFDDDTYDNDIALLQLKSDSSRCAQESSVVRTVCLPPADLQLPDWTECELSGYGKHEALSPFYSERLKEAHVRLYPSSRCTSQHLLNRTVTDNMLCAGDTRSGGPQANLHDACQGDSGGPLVCLNDGRMTLVGIISWGLGCGQKDVPGVYTKVTNYLDWIRDNMRPHHHHHHKDEL", "values": [
      {"measurement": "fibrin plate assay (fibrin degradation; lytic area on the fibrin plate)", "value": "recombinant t-PA from T1 seeds and DSPAα1 from T3 homologous seeds can degrade fibrin"}
    ]},
    {"protein": "recombinant Desmodus rotundus salivary plasminogen activator alpha1 (DSPAα1) from transgenic T3 tobacco seeds, with C-terminal 6xHis tag and KDEL (protein) AYGVACKDEITQMTYRRQESWLRPEVRSKRVEHCQCDRGQARCHTVPVNSCSEPRCFNGGTCWQAVYFSDFVCQCPAGYTGKRCEVDTRATCYEGQGVTYRGTWSTAESRVECINWNSSLLTRRTYNGRMPDAFNLGLGNHNYCRNPNGAPKPWCYVIKAGKFTSESCSVPVCSKATCGLRKYKEPQLHSTGGLFTDITSHPWQAAIFAQNRRSSGERFLCGGILISSCWVLTAAHCFQESYLPDQLKVVLGRTYRVKPGEEEQTFKVKKYIVHKEFDDDTYNNDIALLQLKSDSPQCAQESDSVRAICLPEANLQLPDWTECELSGYGKHKSSSPFYSEQLKEGHVRLYPSSRCAPKFLFNKTVTNNMLCAGDTRSGEIYPNVHDACQGDSGGPLVCMNDNHMTLLGIISWGVGCGEKDVPGVYTKVTNYLGWIRDNMHLHHHHHHKDEL", "values": [
      {"measurement": "fibrin plate assay (fibrin degradation; lytic area on the fibrin plate)", "value": "recombinant t-PA from T1 seeds and DSPAα1 from T3 homologous seeds can degrade fibrin"}
    ]}
  ]
}
